Data taken from IntAct's records for PubMed 23976881.

B1: Heterogeneous nuclear ribonucleoprotein L (Homo sapiens), P14866-1 (parent)
chain: MSRRLLPRAEKRRRRLEQRQQPDEQRRRSGAMVKMAAAGGGGGGGRYYGGGSEGGRAPKRLKTDNAGDQHGGGGGGGGGAGAAGGGGGGENYDDPHKTPASPVVHIRGLIDGVVEADLVEALQEFGPISYVVVMPKKRQALVEFEDVLGACNAVNYAADNQIYIAGHPAFVNYSTSQKISRPGDSDDSRSVNSVLLFTILNPIYSITTDVLYTICNPCGPVQRIVIFRKNGVQAMVEFDSVQSAQRAKASLNGADIYSGCCTLKIEYAKPTRLNVFKNDQDTWDYTNPNLSGQGDPGSNPNKRQRQPPLLGDHPAEYGGPHGGYHSHYHDEGYGPPPPHYEGRRMGPPVGGHRRGPSRYGPQYGHPPPPPPPPEYGPHADSPVLMVYGLDQSKMNCDRVFNVFCLYGNVEKVKFMKSKPGAAMVEMADGYAVDRAITHLNNNFMFGQKLNVCVSKQPAIMPGQSYGLEDGSCSYKDFSESRNNRFSTPEQAAKNRIQHPSNVLHFFNAPLEVTEENFFEICDELGVKRPSSVKVFSGKSERSSSGLLEWESKSDALETLGFLNHYQMKNPNGPYPYTLKLCFSTAQHAS

Variants of: B1
Details: with roa2_human HNRNPA2B1, P22626
Sequence of roa2_human HNRNPA2B1, P22626 (P22626 whole entry): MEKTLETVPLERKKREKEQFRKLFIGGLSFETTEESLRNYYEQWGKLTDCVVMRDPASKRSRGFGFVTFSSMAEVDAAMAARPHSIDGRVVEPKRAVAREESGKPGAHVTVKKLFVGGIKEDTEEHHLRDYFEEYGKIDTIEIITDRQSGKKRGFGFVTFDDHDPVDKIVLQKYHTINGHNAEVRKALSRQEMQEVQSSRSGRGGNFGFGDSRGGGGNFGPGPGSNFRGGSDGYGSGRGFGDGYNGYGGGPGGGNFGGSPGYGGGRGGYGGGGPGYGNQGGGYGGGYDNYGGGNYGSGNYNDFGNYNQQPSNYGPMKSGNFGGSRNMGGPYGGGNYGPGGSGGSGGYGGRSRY
For Y359D, the “effect of a mutation on the interaction” value was “increasing interaction strength”.
